For series [1], the target named is T1, Corn Trypsin Inhibitor (CTI, Calbiochem), P01088.
T1 chain: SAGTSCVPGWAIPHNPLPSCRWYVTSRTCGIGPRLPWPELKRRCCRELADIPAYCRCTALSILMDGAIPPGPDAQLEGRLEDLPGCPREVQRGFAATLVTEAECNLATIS

Series [2] deals with Peptide LRG20 (position 166-185) from uPAR's domain 2.
In series [3] the target is Peptide TCK from uPAR's domain 2 (position 196-214).

B1: FXII in bronchoalveolar lavage fluid (BALF) from IPF patients (protein)
chain: IPPWEAPKEHKYKAEEHTVVLTVTGEPCHFPFQYHRQLYHKCTHKGRPGPQPWCATTPNFDQDQRWGYCLEPKKVKDHCSKHSPCQKGGTCVNMPSGPHCLCPQHLTGNHCQKEKCFEPQLLRFFHKNEIWYRTEQAAVARCQCKGPDAHCQRLASQACRTNPCLHGGRCLEVEGHRLCHCPVGYTGAFCDVDTKASCYDGRGLSYRGLARTTLSGAPCQPWASEATYRNVTAEQARNWGLGGHAFCRNPDNDIRPWCFVLNRDRLSWEYCDLAQCQTPTQAAPPTPVSPRLHVPLMPAQPAPPKPQPTTRTPPQSQTPGALPAKREQPPSLTRNGPLSCGQRLRKSLSSMTRVVGGLVALRGAHPYIAALYWGHSFCAGSLIAPCWVLTAAHCLQDRPAPEDLTVVLGQERRNHSCEPCQTLAVRSYRLHEAFSPVSYQHDLALLRLQEDADGSCALLSPYVQPVCLPSGAARPSETTLCQVAGWGHQFEGAEEYASFLQEAQVPFLSLERCSAPDVHGSSILPGMLCAGFLEGGTDACQGDSGGPLVCEDQAAERRLTLQGIISWGSGCGDRNKPGVYTDVAYYLAWIREHTVS
With B1, in series [1], the “FXII activity assay using chromogenic substrate” value is “The specificity of performed assay was proved by blockade of FXII activity by its inhibitor, Corn Trypsin Inhibitor (CTI)”.

B2: FXIIa (activated factor XII; American Diagnostica, Stamford, Conn.) (protein)
chain: IPPWEAPKEHKYKAEEHTVVLTVTGEPCHFPFQYHRQLYHKCTHKGRPGPQPWCATTPNFDQDQRWGYCLEPKKVKDHCSKHSPCQKGGTCVNMPSGPHCLCPQHLTGNHCQKEKCFEPQLLRFFHKNEIWYRTEQAAVARCQCKGPDAHCQRLASQACRTNPCLHGGRCLEVEGHRLCHCPVGYTGAFCDVDTKASCYDGRGLSYRGLARTTLSGAPCQPWASEATYRNVTAEQARNWGLGGHAFCRNPDNDIRPWCFVLNRDRLSWEYCDLAQCQTPTQAAPPTPVSPRLHVPLMPAQPAPPKPQPTTRTPPQSQTPGALPAKREQPPSLTRNGPLSCGQRLRKSLSSMTRVVGGLVALRGAHPYIAALYWGHSFCAGSLIAPCWVLTAAHCLQDRPAPEDLTVVLGQERRNHSCEPCQTLAVRSYRLHEAFSPVSYQHDLALLRLQEDADGSCALLSPYVQPVCLPSGAARPSETTLCQVAGWGHQFEGAEEYASFLQEAQVPFLSLERCSAPDVHGSSILPGMLCAGFLEGGTDACQGDSGGPLVCEDQAAERRLTLQGIISWGSGCGDRNKPGVYTDVAYYLAWIREHTVS
B2: the “[3H]-thymidine incorporation in murine lung fibroblasts” value in series [1] is “FXII-induced proliferation was blocked by FXIIa specific inhibitor, CTI”; in series [2] it was “Peptide LRG20 (position 166-185) from uPAR's domain 2 blocked increase in DNA synthesis after FXIIa stimulation”; in series [3] it was “peptide TCK from domain 2 (position 196-214) and random peptide had no effect on FXIIa induced proliferation”; in the series with random peptide, “peptide TCK from domain 2 (position 196-214) and random peptide had no effect on FXIIa induced proliferation”. Moreover, the “p44/42 and Akt phosphorylation (Western blot) in murine lung fibroblasts” value in series [1] was “CTI attenuated p44/42 and Akt phosphorylation after 30 min of FXIIa exposure”.
